IntAct's records for PubMed 21565175

Legend:
ARHGAP30, Q7Z6I6-2 [1] = molecular target: ARHGAP30, Q7Z6I6-2
ARHGAP30, Q7Z6I6-2 [2] = molecular target: ARHGAP30, Q7Z6I6-2; remark: listed apart in the source
rhg31_mouse Arhgap31 = rhg31_mouse Arhgap31 (UniProt A6X8Z5)
rhg31_mouse Arhgap31, sequence (A6X8Z5 whole entry): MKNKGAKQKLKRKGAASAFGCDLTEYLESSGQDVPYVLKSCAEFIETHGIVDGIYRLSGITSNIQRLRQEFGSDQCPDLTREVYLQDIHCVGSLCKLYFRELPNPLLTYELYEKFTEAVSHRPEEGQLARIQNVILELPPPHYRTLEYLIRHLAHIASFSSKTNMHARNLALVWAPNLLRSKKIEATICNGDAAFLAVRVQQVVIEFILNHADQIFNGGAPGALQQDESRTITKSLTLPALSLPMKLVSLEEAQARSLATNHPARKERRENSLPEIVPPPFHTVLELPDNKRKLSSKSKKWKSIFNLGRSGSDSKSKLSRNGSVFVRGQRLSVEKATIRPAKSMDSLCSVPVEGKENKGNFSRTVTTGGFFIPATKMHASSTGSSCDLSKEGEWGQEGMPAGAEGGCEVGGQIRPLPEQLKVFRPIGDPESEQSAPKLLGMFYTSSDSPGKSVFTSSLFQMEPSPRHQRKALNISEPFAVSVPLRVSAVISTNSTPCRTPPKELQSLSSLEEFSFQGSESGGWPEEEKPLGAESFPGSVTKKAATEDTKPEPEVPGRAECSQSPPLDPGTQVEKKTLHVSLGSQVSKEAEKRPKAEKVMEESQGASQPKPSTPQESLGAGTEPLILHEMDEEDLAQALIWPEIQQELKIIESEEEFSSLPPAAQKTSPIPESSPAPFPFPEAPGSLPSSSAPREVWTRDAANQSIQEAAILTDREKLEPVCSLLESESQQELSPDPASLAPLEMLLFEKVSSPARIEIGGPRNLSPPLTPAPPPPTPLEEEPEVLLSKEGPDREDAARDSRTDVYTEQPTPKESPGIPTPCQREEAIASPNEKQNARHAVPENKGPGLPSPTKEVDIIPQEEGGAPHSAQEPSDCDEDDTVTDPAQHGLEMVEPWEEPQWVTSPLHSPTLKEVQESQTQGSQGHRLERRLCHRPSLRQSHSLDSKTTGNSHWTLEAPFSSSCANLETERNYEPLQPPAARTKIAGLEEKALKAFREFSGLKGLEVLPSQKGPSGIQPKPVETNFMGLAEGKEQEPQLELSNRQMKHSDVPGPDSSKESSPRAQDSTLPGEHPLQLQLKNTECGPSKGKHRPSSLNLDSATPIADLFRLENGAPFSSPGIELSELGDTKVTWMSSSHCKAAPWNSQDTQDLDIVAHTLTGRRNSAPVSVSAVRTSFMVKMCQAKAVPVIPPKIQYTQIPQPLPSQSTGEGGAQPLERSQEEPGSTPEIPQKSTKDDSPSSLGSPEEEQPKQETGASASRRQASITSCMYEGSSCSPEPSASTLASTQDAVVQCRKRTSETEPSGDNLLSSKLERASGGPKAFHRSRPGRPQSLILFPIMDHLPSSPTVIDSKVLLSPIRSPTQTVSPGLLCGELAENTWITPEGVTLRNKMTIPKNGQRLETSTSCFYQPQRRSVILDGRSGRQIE

ARHGAP30, Q7Z6I6-2, sequence (Q7Z6I6 other isoform, or with tags, fused parts or gaps): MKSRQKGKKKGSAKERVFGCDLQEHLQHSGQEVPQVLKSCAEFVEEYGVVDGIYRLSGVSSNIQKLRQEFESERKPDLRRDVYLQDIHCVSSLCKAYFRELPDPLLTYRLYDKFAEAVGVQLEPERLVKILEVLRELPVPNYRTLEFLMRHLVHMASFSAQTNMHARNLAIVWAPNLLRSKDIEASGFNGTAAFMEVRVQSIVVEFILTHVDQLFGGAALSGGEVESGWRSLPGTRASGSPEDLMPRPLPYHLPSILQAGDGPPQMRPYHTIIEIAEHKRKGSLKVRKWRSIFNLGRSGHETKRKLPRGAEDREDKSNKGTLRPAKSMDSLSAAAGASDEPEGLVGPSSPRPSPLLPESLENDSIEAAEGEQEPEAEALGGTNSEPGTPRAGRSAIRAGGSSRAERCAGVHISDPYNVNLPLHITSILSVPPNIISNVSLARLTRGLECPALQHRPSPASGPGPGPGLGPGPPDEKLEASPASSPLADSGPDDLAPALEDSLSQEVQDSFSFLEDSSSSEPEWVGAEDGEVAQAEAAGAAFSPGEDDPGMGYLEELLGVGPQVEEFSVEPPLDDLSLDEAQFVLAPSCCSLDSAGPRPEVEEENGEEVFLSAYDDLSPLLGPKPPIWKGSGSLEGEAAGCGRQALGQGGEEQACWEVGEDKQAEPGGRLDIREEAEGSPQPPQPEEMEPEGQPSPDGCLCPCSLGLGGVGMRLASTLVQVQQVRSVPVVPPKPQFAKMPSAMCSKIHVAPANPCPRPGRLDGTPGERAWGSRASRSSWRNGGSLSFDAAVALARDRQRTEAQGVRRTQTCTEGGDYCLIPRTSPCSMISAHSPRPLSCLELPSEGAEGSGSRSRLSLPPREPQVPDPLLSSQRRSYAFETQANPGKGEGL
Rho-related GTP-binding protein RhoU (Homo sapiens), Q7L0Q8 F86C, sequence (Q7L0Q8 whole entry F86C): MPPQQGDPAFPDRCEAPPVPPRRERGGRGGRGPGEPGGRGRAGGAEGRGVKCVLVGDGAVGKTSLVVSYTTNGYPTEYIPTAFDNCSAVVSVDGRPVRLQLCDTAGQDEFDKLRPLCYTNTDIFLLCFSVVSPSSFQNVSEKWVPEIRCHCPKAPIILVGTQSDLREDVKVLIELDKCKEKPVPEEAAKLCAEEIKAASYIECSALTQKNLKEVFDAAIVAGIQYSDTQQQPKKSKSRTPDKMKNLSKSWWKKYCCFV

Substance | effect of a mutation on the interaction (ARHGAP30, Q7Z6I6-2 [1]) | effect of a mutation on the interaction (ARHGAP30, Q7Z6I6-2 [2]) | effect of a mutation on the interaction (rhg31_mouse Arhgap31)
Rho-related GTP-binding protein RhoU (Homo sapiens), Q7L0Q8 F86C | with no effect |  | 
Rho-related GTP-binding protein RhoU (Homo sapiens), Q7L0Q8 Q107L | with no effect |  | with no effect

Results, then the substance that gave them:

effect of a mutation on the interaction (ARHGAP30, Q7Z6I6-2 [1]) | effect of a mutation on the interaction (ARHGAP30, Q7Z6I6-2 [2]) | effect of a mutation on the interaction (rhg31_mouse Arhgap31) | Substance
with no effect |  |  | Rho-related GTP-binding protein RhoU (Homo sapiens), Q7L0Q8 P80G
disrupting interaction strength | decreasing interaction strength |  | Rho-related GTP-binding protein RhoU (Homo sapiens), Q7L0Q8 F83G
with no effect |  | disrupting interaction strength | Rho-related GTP-binding protein RhoU (Homo sapiens), Q7L0Q8 T63N
